Laboratory results: patent US20150218240A1 (SAMSUNG ELECTRONICS, published 2015)

Biological target: T1, Cdk6 (Abcam's ab84717, recombinant full length Human Cdk6 (amino acids 1-326) with N-terminal His tag) (human, UniProt Q00534 1-326)
T1 construct: range 1-326; Bought reagent (Abcam ab84717), coated on the ELISA plate at 1 ug/ml; also called CDk6 protein; not shown: N-terminal His tag of the bought protein
Assay: ELISA: Cdk6 coated on plate, p16 at 0-10 uM, detected with anti-p16 antibody and HRP secondary, A450

T1 sequence (Q00534 whole entry, the tested form may be a part): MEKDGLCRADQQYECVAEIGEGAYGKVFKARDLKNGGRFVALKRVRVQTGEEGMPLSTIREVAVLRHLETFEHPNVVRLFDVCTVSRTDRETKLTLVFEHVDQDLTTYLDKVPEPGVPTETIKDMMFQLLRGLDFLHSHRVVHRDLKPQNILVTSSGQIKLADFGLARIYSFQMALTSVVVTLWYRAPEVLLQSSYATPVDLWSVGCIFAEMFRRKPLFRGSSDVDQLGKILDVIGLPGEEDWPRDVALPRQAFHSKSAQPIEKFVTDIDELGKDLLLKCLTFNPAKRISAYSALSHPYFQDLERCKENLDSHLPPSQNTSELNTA

binding result: binds
B1: human p16 protein variant (SEQ ID NO: 2; W15K, L37D, L65K, C72S, L78S, V106A, L113T) (other)
chain: MEPAAGSSMEPSADKLATAAARGRVEEVRALLEAGADPNAPNSYGRRPIQVMMMGSARVAELLLKHGAEPNSADPATSTRPVHDAAREGFLDTLVVLHRAGARLDARDAWGRTPVDLAEELGHRDVARYLRAAAGGTRGSNHARIDAAEGPSDIPD
notes: also called p16INK4a variant; mt p16
